For orientation: Kd means the equilibrium constant for the complex coming apart. Low values mean higher affinity, high ones lower affinity.

First the molecules themselves.
B1: Table 1 Line # 53 antibody (SP_Plasma_cell) (antibody, human IgG4, V domains shown)
VH: EIQLVESGGGLVQPGRSLRLSCAASGFTFDDYAMHWVRQAPGKGLEWVSGINWNNGSLGYADSVKGRFTISRDNAKNSLYLQMNSLRTEDTALYYCVKDTGSWASYYGMDVWGHGTTVTVSS
VL: DIQMTQSPSSLSASIGDRVTITCRASQGIRNDLGWYQQKPGKAPKRLIYAASSLQSGVPSRFSGSGSGTEFTLTISSLQPEDFATYYCLQHNSYPYTFGQGTKLEIK
notes: Cloned with human IgG4/human Igk constants for Kd; barcode counts are of the source cell's own IgG
B2: Table 1 Line # 54 antibody (SP_Plasma_cell) (antibody, human IgG4, V domains shown)
VH: QVQLVQSGAEVKKPGASVKVSCKASGYTFTNYGISWVRQAPGQGLEWMGWISVYNGNTNYAQKLQGRVTMTTDTSTSTAYMEVRSLRSDDTAVYYCARGVNWNYVFDYWGQGTLVTVSS
VL: B1 VL with I15V, A50V, A51V, Y96W, L104V
notes: as for B1
B3: Table 1 Line # 31 antibody (SP_B_cell) (antibody, human IgG4, V domains shown)
VH: EVQLVESGGGLVQPGRSLRLSCAASGFTFDDYAMHWVRQAPGKGLEWVSGISWNSGNIGYADSVKGRFTISRDNANNSLYLQMNSLRAEDTALYYCAKDYSSAWYGYFDYWGQGTLVTVSS
VL: not shown
notes: as for B1
B4: Table 1 Line # 4 antibody (BM_Plasma_cell) (antibody, human IgG4, V domains shown)
VH: B3 VH with Y32F, N57S, N76K, A97T, Y100S, A103S, Y110L, Q113R
VL: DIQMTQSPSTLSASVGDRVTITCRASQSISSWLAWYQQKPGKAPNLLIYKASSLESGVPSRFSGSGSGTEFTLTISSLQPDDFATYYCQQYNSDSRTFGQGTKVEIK
notes: as for B1
B5: Table 1 Line # 19 antibody (BM_Plasma_cell) (antibody, human IgG4, V domains shown)
VH: B3 VH with Y32F, A40E, S55G, N76K, L93F, Y100V
VL: DIQMTQSPSTLSASVGDRVTITCRASQSVSSWLAWYQQKPGKAPKLLIYKASSLESGVPLRFSGSGSGTEFTLTISSLQPDDFATYYCQVYNSDSRTFGQGTKVEIK
notes: as for B1
B6: Table 1 Line # 34 antibody (SP_B_cell) (antibody, human IgG4, V domains shown)
VH: EVQLVASGGDLVQPGRSLRLSCAASGFTFDDFGMHWVRQAPGKGLEWVSGISWNGGHMGYAASVKGRFTMSRDNAKNSLYLQMNSLRVEDTALYYCVKEFSSSWYGFFDLWGRGTLVTVSS
VL: DIQMTQSPSSLSASVGDRVTITCRASQGLGNSVAWYQQKPGQIPRLLISAAASLQSGVPSRFSGSGSGTDFTLTISSLQPEDVATYYCQNYNSAPRTFGQGTNVEIK
notes: as for B1
B7: Table 1 Line # 46 antibody (SP_Plasma_cell) (antibody, human IgG4, V domains shown)
VH: B6 VH with V5E, T28I, M58I, A62D, M70I, V88A, V97A, F100H, L110F
VL: B6 VL with G30S, S77R
notes: as for B1
B8: Table 1 Line # 2 antibody (BM_Plasma_cell) (antibody, human IgG4, V domains shown)
VH: EVRLVESGGGLVQPGRSLRLSCAASGFTFDDYAMHWVRQAPGRGLEWVSGISWKGDALGYADSVKGRFTISRDNAKNSLYLQMSSLRAEDTALYYCAKDTGSYHYYYGLDVWGQGTTVAVSS
VL: DIQMTQSPSSLSASVGDRVTITCRASQGIRTDLGWYQQKPGKAPKRLIYAASNLHGGVPSRFSGTGSGTDFTLTISSLQPEDFATFFCLQHYSYPLTFGGGTKVEIK
notes: as for B1
B9: Table 1 Line # 41 antibody (SP_Plasma_cell) (antibody, human IgG4, V domains shown)
VH: B8 VH with R3Q, A119T
VL: B8 VL with T31N, K45E, H55Q, G56S, T65S, D70E, F87Y
notes: as for B1
B10: Table 1 Line # 49 antibody (SP_Plasma_cell) (antibody, human IgG4, V domains shown)
VH: EVHLLESGGGFIQPGGSLRLSCAASGFTFSTYAMNWVRLAPGKGLEWVSTISGSGGFTSYTDSVQGRFTISRDNSKNKLYLQINNLTAEDTAVYYCAKDRRIVGATGFDYWGQGALVTVSS
VL: DIQMTQSPSSLSASAGDRVTITCRASQSISSYLNWYQQKPGKAPKLLIYAASSLQSGVPSRFSGSGSGTDFTLTISSLQPEDSATYYCQQSYGFHTFGQGTRLEIK
notes: as for B1
B11: Table 1 Line # 18 antibody (BM_Plasma_cell) (antibody, human IgG4, V domains shown)
VH: EVQLVQSGAEVKKPGESLKISCKGSGYRFTTNWIGWVRQMPGKGLEWMGIIYPDDSDTRYSPSFQGQVTISADKSINTAYLHWNSLKSSDTAIYYCARGANWFDPWGQGTLVTVSS
VL: EIVLTQSPGILSLSPGKRATLSCRASQSVSSNFLAWYQQKPGQAPRLLIYGTSSRANGIPDRFSGSGSGTDFTLTISGLEPEDFAEYYCQQYGSSVTFGQGTRLEIK
notes: as for B1
B12: Table 1 Line # 42 antibody (SP_Plasma_cell) (antibody, human IgG4, V domains shown)
VH: EVQLLESGGGLVQPGGSLRLSCAASGFTFISYTLSWVRQAPGKGLEWVSAISGSGGSTYYVDSVKGRFTISRDNSRNTLYLQMNSLRAEDTAVYYCAKDLGSTVYWGQGTLVTVSS
VL: not shown
notes: as for B1
B13: Table 1 Line # 13 antibody (BM_Plasma_cell) (antibody, human IgG4, V domains shown)
VH: EVQLVESGGEMIRPGGSLRLSCAASGFIFDDYGMSWIRQAPGKGLEWVSGINWNGGHTGYSDSVKGRFTISRDNAKNSLYLQMNSLRAEDTALYHCVRDSSSSWYGVFDYWGQGTLVTVSS
VL: DIQMTQSPSSLSASVGDRVTITCRASQGISNSLAWYQQKPGTVPKLLIFAASTLLSGIPSRFSGGGSGTDFTLTISSLQPEDVATYYCQNYNSAPRTFGQGTKVEIK
notes: as for B1
B14: Table 1 Line # 16 antibody (BM_Plasma_cell) (antibody, human IgG4, V domains shown)
VH: B3 VH with A33G, N57H, N76K, Y80N, Y100I, A103S, Y110L, Q113R
VL: B13 VL with S32F, Y36F, T42K, F49Y, L55Q, I58V, G65S, N90E
notes: as for B1
B15: Table 1 Line # 7 antibody (BM_Plasma_cell) (antibody, human IgG4, V domains shown)
VH: B3 VH with S55G, G56A, N57S, V64L, N76K, A88S, Y94F, K98R
VL: B13 VL with G28D, S32Y, T42K, F49Y, L55Q, I58V, G65S, A94V
notes: as for B1
B16: Table 1 Line # 11 antibody (BM_Plasma_cell) (antibody, human IgG4, V domains shown)
VH: B3 VH with N57S, N76K, K98R, Y110S
VL: B13 VL with S30N, S32Y, T42K, V43I, A50T, L55Q, I58V, G65S, S76N, A94V
notes: as for B1
B17: Table 1 Line # 15 antibody (BM_Plasma_cell) (antibody, human IgG4, V domains shown)
VH: EVQLVESGGALVQPGRSLRLSCAASGFAFDDYAMHWVRQAPGKGLEWVSGISWNGASLGYADSLKGRFTISRDNAKNSLYLQMNSLRSEDTALFYCARDYSSAWYGYFDYWGQGTLVTVSS
VL: B13 VL with G28D, S32Y, T42K, F49Y, L55Q, I58V, G65S, E81Q, A94V
notes: as for B1
B18: Table 1 Line # 1 antibody (BM_Plasma_cell) (antibody, human IgG4, V domains shown)
VH: EVQLVESGGGLVKPGGSLRLSCAASGFTFSSYSMNWVRQAPGKGLEWVSSISSSSSYIYYADSVKGRFTISRDNAKNSLYLQMNSLRAEDTAVYYCASLAARPFWGQGTMVTVSS
VL: DIQMTQSPSSVSASVGDRVTITCRASQGISSWLAWYQQKPGRAPKLLIYAASSLQSGVPSRFSGSGSGTDFTLTISSLQPEDFATYYCQQANSFPLTFGGGTKVEIK
notes: as for B1
B19: Table 1 Line # 35 antibody (SP_B_cell) (antibody, human IgG4, V domains shown)
VH: EVQLVESGGGLVKPGGSLRLSCAASGFTFSSYSMNWVRQAPGKGLEWVSSISSSSSYIYYADSVKGRFTISRDNAKNSLYLQMNSLRAEDTAVYYCARDRSSSPLENWGQGTLVTVSS
VL: B18 VL with R42K, L96I, G100Q, K103R, V104L
notes: as for B1
B20: Table 1 Line # 40 antibody (SP_Plasma_cell) (antibody, human IgG4, V domains shown)
VH: QVQLQESGPGLVKPSETLSLTCTISGGSISTYYWSWIRQPPGKGLEWIGYIYYSGNTNYNPSLKSRVTISVDTSKNQFSLKLNSVTAADTAVYYCARHRGSYVYGMDVWGQGTTVTVSS
VL: DIQMTQSPSSLSASLVDRVTITCRASQTISSYLNWYQQKPGKAPKLLIYGASILQSGVPSRFSGSGSGTDFTLTISSLQPEDHAVYFCQQSYSSPTFGGGTKVEIK
notes: as for B1
B21: Table 1 Line # 37 antibody (SP_B_cell) (antibody, human IgG4, V domains shown)
VH: QVHLVESGGDVVQPGRSLRLSCAASGFTFSYYGMHWVRQAPFKGLEWVAVIWYDGSNKYYADSVKGRFTITRDNSKNTVYLQMNSLRAEDTAIYYCARWGGFGVTGTHLDYWGQGTLVTVSS
VL: DIQLTQSPSLLSASVGDRVTITCWASQDIAGHFAWYQQKPGTVPKLLIYAISTLDSGVPSRFSGSRSGTEFTLTISSLQPEDFATYYCQHLNSYPYTFGQGTKLEIK
notes: as for B1

Residue numbers refer to the chain shown, from its start.

The target of the first test is T1, human IL-4Rα (hIL-4Rα) monomeric protein (human, UniProt P24394 26-232, limits assumed).
T1 construct: also called hIL-4Rα antigen; barcoded hIL-4Rα
Kind of test: Biacore (SPR).
Consider B1, for which the Kd came to 247 nM.
B2: the Kd worked out at 13.5 nM.
The molecule B3 returned a Kd of 133 nM.
For B4, the Kd was 158 nM. This Kd and that of the molecule before are within 1.5-fold of each other.
On the same count and under the same terms, then B5, with 12.1 nM.
On the same count and under the same terms, then B6, with 34.2 nM.
Still for that read-out and setting: then B7, with 49.2 nM; and B8, with 161 nM; and B9, with 150 nM.
In turn, B10 had a Kd of 132 nM. The Kd values of the last two molecules are within 1.5-fold of each other.
B11 returned a Kd of 41.4 nM.
For the molecule B12, the dissociation constant Kd worked out at 127 nM.
The molecule B13 came in with a Kd of 58.2 nM.
The molecule B14 gave a Kd of 8.04 nM.
The same measure, in the same setting: then B15, with 15.5 nM; and B16, with 27.5 nM.
B17 came in with a Kd of 19.9 nM.
For the molecule B18, the Kd came out at 416 nM.
The molecule B19 showed a Kd of 29.3 nM.
Regarding B20, the Kd turned out to be 118 nM. Compared with the last molecule, the Kd is about 4-fold higher.
On the same count and under the same terms, then B21, with 197 nM.

Another test addresses T1, human IL-4Rα (hIL-4Rα) monomeric protein. Kind of test: Biacore (SPR); negative log10 of Kd.
Consider B1, for which the negLog10Kd came out at 6.61.
The same measure, in the same setting: then B2, with 7.87; and B3, with 6.88.
As to B4, the negLog10Kd stood at 6.8.
Take B5: the negLog10Kd worked out at 7.92.
On to B6, for which the negLog10Kd was 7.47.
The molecule B7 had a negLog10Kd of 7.31.
B8 came in with a negLog10Kd of 6.79.
Regarding B9, the negLog10Kd was found to be 6.82.
Molecule B10 returned a negLog10Kd of 6.88.
On to B11, for which the negLog10Kd was determined as 7.38.
Regarding B12, the negLog10Kd was found to be 6.9.
With B13, the negLog10Kd was found to be 7.24.
For B14, the negLog10Kd is 8.09.
For B15, the negLog10Kd was determined as 7.81.
The molecule B16 came in with a negLog10Kd of 7.56.
The same measure, in the same setting: then B17, with 7.7; and B18, with 6.38.
B19 registered a negLog10Kd of 7.53.
Same read-out and setting: then B20, with 6.93.
B21 displayed a negLog10Kd of 6.71.

A further test shares this target. Kind of test: barcoded-antigen count on source cell (scRNA-seq).
B1 registered an REGN560.L15_ab_raw of 818 counts.
B2 gave an REGN560.L15_ab_raw of 815 counts.
As for B3, the REGN560.L15_ab_raw was found to be 8520 counts.
B4: the REGN560.L15_ab_raw stood at 5050 counts.
B5 displayed an REGN560.L15_ab_raw of 2060 counts.
In turn, B6 had an REGN560.L15_ab_raw of 6890 counts.
Take B7: the REGN560.L15_ab_raw was determined as 1520 counts.
In the case of B8, the REGN560.L15_ab_raw came out at 6540 counts.
Consider B9, for which the REGN560.L15_ab_raw was found to be 2460 counts.
As to B10, the REGN560.L15_ab_raw was found to be 1200 counts.
Still for that read-out and setting: then B11, with 2170 counts; and B12, with 2080 counts; and B13, with 2930 counts.
B14 yielded an REGN560.L15_ab_raw of 2370 counts.
On the same count and under the same terms, then B15, with 4140 counts; and B16, with 3210 counts; and B17, with 2580 counts.
The molecule B18 returned an REGN560.L15_ab_raw of 11200 counts.
The same measure, in the same setting: then B19, with 6710 counts; and B20, with 5520 counts.
On to B21, for which the REGN560.L15_ab_raw was 6230 counts.

Values taken from patent publication US20230349919A1 (Regeneron, published 2023).
